Experimental data taken from patent US20210324051A1 (published 2021).

T1: EBOV Mayinga strain GP ectodomain containing the glycan cap and mucin-like domain (Ebola virus, Mayinga strain, UniProt Q05320 33-650)
T1 chain: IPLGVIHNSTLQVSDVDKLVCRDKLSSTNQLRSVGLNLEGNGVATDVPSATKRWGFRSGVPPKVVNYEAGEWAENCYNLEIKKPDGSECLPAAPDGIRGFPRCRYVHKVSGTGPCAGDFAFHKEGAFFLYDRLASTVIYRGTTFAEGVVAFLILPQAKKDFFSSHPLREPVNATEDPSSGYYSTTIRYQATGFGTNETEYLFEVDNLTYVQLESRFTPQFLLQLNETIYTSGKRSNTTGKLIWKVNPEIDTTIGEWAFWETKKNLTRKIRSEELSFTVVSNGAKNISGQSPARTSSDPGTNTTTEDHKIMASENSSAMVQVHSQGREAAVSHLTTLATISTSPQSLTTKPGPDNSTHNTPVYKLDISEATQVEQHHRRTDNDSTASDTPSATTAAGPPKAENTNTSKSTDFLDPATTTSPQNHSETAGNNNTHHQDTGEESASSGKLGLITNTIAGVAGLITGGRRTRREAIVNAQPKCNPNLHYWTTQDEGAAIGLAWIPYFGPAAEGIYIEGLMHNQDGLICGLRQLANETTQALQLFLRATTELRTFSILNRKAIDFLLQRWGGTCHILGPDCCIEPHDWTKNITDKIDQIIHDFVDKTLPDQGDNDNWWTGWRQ

T2: EBOV Mayinga strain cleaved GP ectodomain (Ebola virus, Mayinga strain, UniProt Q05320 33-650)
T2 chain: T1 chain

T3: Angola strain MARV GP ectodomain containing the mucin-like domain (Marburg virus, Angola strain, UniProt Q1PD50 19-648)
T3 chain: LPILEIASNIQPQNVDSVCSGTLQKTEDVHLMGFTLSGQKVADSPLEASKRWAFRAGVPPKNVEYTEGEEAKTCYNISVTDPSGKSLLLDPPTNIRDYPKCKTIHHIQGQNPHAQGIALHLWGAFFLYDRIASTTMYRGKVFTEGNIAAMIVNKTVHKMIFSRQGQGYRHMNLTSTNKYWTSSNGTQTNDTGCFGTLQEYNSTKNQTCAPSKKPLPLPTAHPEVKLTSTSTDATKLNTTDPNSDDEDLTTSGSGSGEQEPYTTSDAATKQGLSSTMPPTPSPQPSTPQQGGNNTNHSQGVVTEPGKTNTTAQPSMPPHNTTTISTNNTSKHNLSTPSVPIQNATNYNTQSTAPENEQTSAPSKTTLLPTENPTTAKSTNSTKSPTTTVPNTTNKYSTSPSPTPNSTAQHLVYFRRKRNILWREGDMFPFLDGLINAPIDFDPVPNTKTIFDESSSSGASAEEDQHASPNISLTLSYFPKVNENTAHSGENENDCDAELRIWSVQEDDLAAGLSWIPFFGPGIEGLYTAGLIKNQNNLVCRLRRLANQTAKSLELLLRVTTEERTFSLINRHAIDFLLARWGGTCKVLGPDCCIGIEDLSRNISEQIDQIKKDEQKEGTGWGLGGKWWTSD

T4: Ravn strain cleaved MARV GP ectodomain (Marburg virus, Ravn strain, UniProt Q1PDC7 19-648)
T4 chain: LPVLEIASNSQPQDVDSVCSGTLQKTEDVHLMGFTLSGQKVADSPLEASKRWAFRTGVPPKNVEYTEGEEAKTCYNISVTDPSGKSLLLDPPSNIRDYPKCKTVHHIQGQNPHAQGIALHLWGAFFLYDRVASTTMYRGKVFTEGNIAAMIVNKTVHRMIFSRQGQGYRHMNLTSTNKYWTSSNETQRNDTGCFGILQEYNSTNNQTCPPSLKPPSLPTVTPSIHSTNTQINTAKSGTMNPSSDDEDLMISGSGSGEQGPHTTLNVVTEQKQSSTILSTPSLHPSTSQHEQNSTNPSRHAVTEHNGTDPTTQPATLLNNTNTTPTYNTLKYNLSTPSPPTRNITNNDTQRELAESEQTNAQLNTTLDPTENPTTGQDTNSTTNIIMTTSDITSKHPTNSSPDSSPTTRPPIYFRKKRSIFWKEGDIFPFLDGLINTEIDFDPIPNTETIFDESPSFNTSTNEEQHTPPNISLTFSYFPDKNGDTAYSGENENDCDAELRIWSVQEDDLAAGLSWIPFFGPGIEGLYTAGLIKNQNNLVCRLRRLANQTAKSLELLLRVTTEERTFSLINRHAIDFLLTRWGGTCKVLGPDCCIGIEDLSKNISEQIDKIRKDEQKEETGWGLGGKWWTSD

B1: MR229 (antibody)
chain 1: EVQLVESGGGLVKPGGSLRISCVTSGFTFGDYAMSWFRQAPGKGLEWVGFIRNKGYGGTIDYAASVKGRFTISRDDSKSIAYLQMNSLKTEDTAVYYCTGVRLHYDFWSGYDDDSFHIWGQGTM
chain 2: DGVMTQSPLSLPVTPGQPASISCRSTQSLVHGDGDTYLYWFQQRPGQSPRRLIYKVSNRDSGVPDRFSGSGSGTDFTLKISRVEAEDVGVYYCMQSTHWPPTFGQ
B2: MR111 human monoclonal antibody (antibody, V domains shown)
V domain 1: QVQLQESGPGLVKPSETLSLTCTVSGDSINNYYWSWIRQPPGKGLEWIGYIYYSNTNYNPSLKSRVTISVDTSKNQFSLRLSSVTAADTAVYYCARSPLFWFGEFFSSPDHFDFWGQGTL
V domain 2: QSALTQPASVSGSPGQSITISCTGTSSDVGSYDLVSWYQQHPGKAPKLMLYEGTKRPSGVSNRFSGSKSGNTASLTISGLQAEDEADYYCCSYAGGSTLVFGGGTQVTVL
B3: MR82 (antibody, V domains shown)
VH: QVQLVQSGAEVKKPGASVKVSCKASGHTFTTYAIHWVRQAPGQGLEWMGWINPDNDNTEYSQKFQGRVTITRDTSASTAYMELSSLISEDTAVFYCASASYTFWSGYYSGLDYWGQGTLVTVSS
VL: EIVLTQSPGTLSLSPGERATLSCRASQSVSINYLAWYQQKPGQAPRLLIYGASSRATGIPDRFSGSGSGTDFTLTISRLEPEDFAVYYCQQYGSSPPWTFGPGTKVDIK
B4: MR209 (antibody)
chain 1: QLQLQESGPGLVKPSETLSLTCTVAGGPITSNNYYWGWIRQSPGKGLEWIGSVYYSGNTYYNPSIKTRVTMSVDTSKSQFSLKLNSVTAADTAVYYCARQFRLLQFVEWLHHFDSWGPGN
chain 2: SYVLTQPPSVSVAPGQTARIPCGGNDIANKRVHWYQQKPGQAPMLVVYDDGDRPSGIPERFSGSNSGNTATLTISRVEAGDEADYYCQVWENSSDLCVVFGGGTKLTVL
B5: MR144 (antibody, V domains shown)
V domain 1: QVQLQESGPGLVKPSETLSLTCTVSGDSISRYYWSWIRQPPGKGLEWIGYLYYSGSTDYNPSLKSRVTISVDTSKNQFSLNLTSVTAADTAVYYCARGSSRGIGVVSHWFDPWGQGT
V domain 2: SYVLTQPPSVSVAPGQTARITCGGSNMGYKSVQWYQQRPGQAPVLVVYDDTDRPSGIPERFSGSNSGATATLTISSVEAGDEADYYCQVWDSSSDHHVVFGGGTQVTVL
B6: MR72 human monoclonal antibody (antibody, V domains shown)
VH: QLQLQESGPGLVKPSETLSLTCTVSGDSINNTNYYWAWIRQPPGKGLEYIGSIYYSGSTYYNPSLKSRVTMSVDASKNQFSLRLSSVTAADTAVYYCATHPTLGAFVLLWFGANFDHWGQGTLVTVSS
VL: QAVVTQPPSVSGAPGQRVTISCTGSSSNIGANYDVHWYQQLPGTAPKLLMYSNTNRPSGVPDRFSGSKSGTSASLAITGLQAEDEADYYCQSYDNSLNSWVFGGGTQLTVL
B7: MR65 (antibody, V domains shown)
VH: EVQLLESGGGLVQPGGSLRLSCAASGFTFSSYAMSWVRQAPGQGLEWVSGISATGGNTYYPDSVKGRFTISRDNSKNTLYLQMNSLRAEDTAVYYCARPLQFLTWFDPWGQGTLVTVSS
VL: EIVLTQSPATLSLSPGERATLSCRASQSVNNFLAWYQQKPGQPPRLLIYDATNRATGIPARFSGSGSGTDFTLTISSLEPEDFAVYHCQHRSNWPSITFGQGTRLEIK
B8: MR232 (antibody, V domains shown)
VH: QLQLQESGPGLVKPSETLSLTCAVSGGSISSSGYCWGWIRQPPGKGLEWIASICSSGTTYFNSSLKSRVSISIDTSRPQFLLNLRSLTAADTAVYYCARQRMELHFLEWLFPFDSWGQGTLVTVSS
VL: DIVMTQSPATLSVSPGERATLSCRASQSVSSNLAWYQQKPGQAPRLLISGASTRATGIPARFSGSGSGTEFTLTISSLQSEDFAVYYCQQYINWPCSFGQGTKVDIK
B9: MR208 (antibody, V domains shown)
VH: QVQLQESGPGLVKPSETLSLTCSVSGDSVSSGDYYWSWLRQPPGKGLEWIGYIYYSGATNYNPSLKSRVTISLDTSKNQFSLKLTSVTAADTAVYYCARERAGFLEWLFFEDWGQGT
VL: DIQMTQSPSSLSASVGDRVTIFCRASQSIGTYLSWYQQKPGKAPKVLIYATSNLQSGVPSRFSGSGSGTEFTLTISSLQPEDFATYYCQQSRTFGQGTKVDMK
B10: MR191 human monoclonal antibody (antibody, V domains shown)
VH: QLQLQESGPGLVKPSETLSLSCTVSGVSISDNSYYWGWIRQPPGKGLEWIGTISYSGNTYYNPSLKSRVSISGDTSKHQLSLKVSSVTAADTAVYYCARQRIVSGFVEWLSKFDYWGQGTLVTVSS
VL: QSVLTQPPSVSGAPGQRVTISCTGSSSNIGAGFDVHWYQQLPGTAPKLLIYDNNNRPSGVPDRFSGSKSGTSASLAITGLQAEDEADYYCQSYDTSLSGPVVFGGGTKLTVL
B11: MR241 (antibody, V domains shown)
VH: QVQLQESGPGLVKPSETLSLTCTVSGASISGNFWSWIRQPPGKGLEYIGYMSDIGTTNYSPSLKSRVTISVDTSKNQFSLNLTSVTAADAAVYYCARLVAVPGFFYHYYMDVWGEGTLVTVSS
VL: DIVMTQSPSSVSASVGDRVTITCRASQGISGWLAWYQQKPGKAPKLLIYATSTLQSGVPSRFSGSESGTAFTLTISSLQPEDFATYYCQQANSFPLTFGGGTKVEIK

Target: T1, EBOV Mayinga strain GP ectodomain …
Test: ELISA

Binder	EC50 [µg/mL]
B1	> 1000
B2	> 1000
B3	> 1000
B4	> 1000
B5	> 1000
B6	6.1
B7	> 1000
B8	> 1000
B9	> 1000
B10	> 1000
B11	> 1000

Target: T2, EBOV Mayinga strain cleaved GP …
Test: ELISA

Binder	EC50 [µg/mL]
B1	> 1000
B2	21.5
B3	> 1000
B4	> 1000
B5	> 1000
B6	< 0.1
B7	> 1000
B8	> 1000
B9	> 1000
B10	< 0.1
B11	> 1000

Target: Angola strain MARV GP ectodomain lacking residues 257-425 of the mucin-like domain (Marburg virus, Angola strain, UniProt Q1PD50 19-648)
Test: ELISA

Binder	EC50 [µg/mL]
B1	2.9
B2	4.3
B3	1.5
B4	5.4
B5	8
B6	4.7
B7	7.5
B8	1.3
B9	7.3
B10	5.1
B11	4

Target: EBOV Mayinga strain GP ectodomain lacking residues 314-462 of the mucin-like domain (Ebola virus, Mayinga strain, UniProt Q05320 33-650)
Test: ELISA

Binder	EC50 [µg/mL]
B1	> 1000
B2	> 1000
B3	> 1000
B4	> 1000
B5	> 1000
B6	2.1
B7	> 1000
B8	> 1000
B9	> 1000
B10	> 1000
B11	> 1000

Target: T3, Angola strain MARV GP ectodomain …
Test: ELISA

Binder	EC50 [µg/mL]
B1	1.8
B2	2.5
B3	1
B4	4
B5	8.1
B6	3
B7	8.3
B8	2
B9	5.6
B10	2.5
B11	2.2

Target: T4, Ravn strain cleaved MARV GP ectodomain
Test: ELISA

Binder	EC50 [µg/mL]
B1	1.2
B2	1.5
B3	0.5
B4	2
B5	3.3
B6	0.8
B7	5
B8	0.5
B9	2.8
B10	1.4
B11	1.2
